# The RNAGym collection of RNA variant scans (doi:10.1073/pnas.2313332121)
# B1: TPR t1 (parent)
# chain: GACCAAUCUGCCCUCAGAGCUCGAGAACAUCUUCGGAUGCAGAGGAGGCAGGCUUCGGUGGCGCGAUAGCGCCAACGUCCUCAACCUCCAAUGCAUCCCACCACAUGAUGAUGCCUGAAGAGCCUUGGUUUUUUG
# Variants of: B1
# Test: polymerase ribozyme fitness, log enrichment relative to wild type (log ratio); higher = more active; in vitro selection for triplet polymerase activity
# In short: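 Only genotypes with ≥10 input reads and ≥1 read per output were kept after Illumina sequencing of input and output libraries. These libraries were PCR-built, transcribed mutants of each subunit of a heterodimeric triplet polymerase ribozyme, each put through one triplicate in vitro selection round with frozen incubation at −7 °C, gel excision of extended constructs, streptavidin-bead capture and RT-PCR. Fitness is a logarithmic ratio of genotype enrichment to wild-type enrichment, from inverse-variance-weighted replicate averages, with the logarithm in base 2.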
row,Variant,polymerase ribozyme fitness (log ratio)
1,G10A C34A C40U G71C G77U C88A G113A,-6.08
2,G10U A29C G60A,-3.27
3,G10C G35A U59C U112A,-5.77
4,G10U A121U,1.92
5,G10A C13A U112A,0.644
6,G10A C15U G47A U112A C124A G127C,-1.98
7,G10C A66G A83U,-1.48
8,G10A G35A G77A,-5.04
9,U9G U54G U81A U125A G128U,-3.65
10,G10A G44A A46U G48C,-1.66
11,G10A C31U G61C C82A C94G C124U,-5.7
12,G10C C80A U130G,-3.78
13,G10A C64U,-0.954
14,G10C C13U U78G C79U C89U,-0.171
15,U9G U78C C79G G110A,-2.65
16,G10A G61A C94U,-0.166
17,G10A C13A C64A U112A,-7.66
18,G10A G63A C89A,-3.25
19,G10A C34U G77A,-5.24
20,G10A U59C G61A A83G C114G C115U,-7.23
21,G10A C13U C22G G35C C101A U131G,-4.66
22,G10A A37U G71C C104U,-0.936
23,G10C C12A U54C G122A,0.0391
24,G10A A43G C76U C89U A111C,-4

row,Variant,polymerase ribozyme fitness (log ratio)
1,G10C C34U A43U C101G G107C,-7.66
2,G10A G71U U87C,-0.267
3,G10A G60U,-0.0901
4,G10A G45A,-1.2
5,G10A G45C,-0.489
6,G10U A118U,-0.131
7,G10A G48C C64A G113A A119G C124G,-6.38
8,U9G G120U,1.06
9,G10C C49G U55G C94A,-3.2
10,G10U C11G U14A A37G C76U G93C C102A,-5.35
11,G10U C13A G48U C94U U132A,-0.329
12,G10C C40G A66U,-2.18
13,G10A G51U C101A,-4.71
14,U9G U54A C56A G71A,-2.22
15,G10U A29U C70G G113A,-4.17
16,G10A U21G G60A A103C C114A,-5.69
17,G10A C49G G63U,-0.848
18,G10C A16C C53U G117U,-4.5
19,G10A C22A C79A G120U C123G,-5.58
20,G10A C56G C82G C115G A121U,-0.467
21,G10C C34U,-5.43
22,G10A U59A C62A C89G,-5.2
23,G10A C40A C72U C76A C99A,-7.55
24,G10A C64U A103U C123U,-3.16

row,Variant,polymerase ribozyme fitness (log ratio)
1,G10A G17A,-3.1
2,G10U C12A C56A C72A C82A,-1.27
3,G10C C11G C20U A43U C72U,-2.23
4,G10A C22G G61A G71C A111U G117A,-7.23
5,G10U A41C G48U G113C,-3.37
6,G10C C13G C94A,-0.274
7,G10C C13G G35A G61A C114U,-5.47
8,U9G U32C U59A U131A,-0.0228
9,G10C C56U,-0.594
10,G10A C88A C123U,1.69
11,G10A C34U U87G,-3.98
12,G10A G17A A37G G42U C53A C64U A100U,-5.75
13,G10C G120C,1.04
14,G10A C12A A29G G52U C56A G57C,-2.57
15,G10C U54C G93C C102A,-5.34
16,G10A A29U A41C C73U A74U G113U,-3.95
17,G10C A37U A84G C85A C94U C101G,-4.54
18,G10C G60U A118G,-1.45
19,G10A A29U G110A,-2.97
20,G10U C12G C89G U96A G110U U112A G117C,-5.26
21,U9G U32C G52C G110C,-5.7
22,G10A G45C C56G C72U,-2.53
23,G10A G44U U92G C115A,-3.73
24,G10C U32C G113U,-3.81

row,Variant,polymerase ribozyme fitness (log ratio)
1,G10A G48U G52A G77U,-2.41
2,G10A U54G G71C C102U A111U U129G,-5.93
3,G10A C72A,0.427
4,G10A C72U,-0.532
5,G10C G52C G77U A121U,0.617
6,G10C A24U C53A G63C G117C G128A,-5.7
7,G10A C76U G110C,-5.64
8,G10U A84G G120A U125G,0.926
9,U9G U78C A121U,1.6
10,G10C C56G C123U,1.26
11,G10C G39C C49G A111U,-4.94
12,G10U A37U C102G C115A,-6.5
13,G10C U32C C114U,-0.699
14,G10A C53A C72U C79A U96G,-1.55
15,G10A A41U,-0.89
16,G10A A74C U78A A111G,-0.232
17,G10C G42C C123A G128A,-2.91
18,G10A C62U G69A A121U G127U,-1.42
19,G10C G117A,-1.75
20,G10A C76U U78A C85A U125G,-1.57
21,G10C G36U A50C U78G C86A,-4.45
22,G10A G42A,-1.32
23,G10C A29C G61C C123U U125A G135A,-4.26
24,G10A C13A G39C U133A,-1.46

row,Variant,polymerase ribozyme fitness (log ratio)
1,G10U C13A A41C G71A C85U,-3.61
2,G10C C64U C123G U133A,1.47
3,U9G G110U,-1.36
4,G10A C13U,0.219
5,G10C A18C C62U U133A,-3.86
6,G10A A74G A90U G107U C115U,-7.83
7,G10C G69U C79G C80U,-2.66
8,G10A C82A A95U,-0.318
9,G10C C12A A83C C124G,1.04
10,U9G U92A U96G U109A,-5.59
11,G10C C73G C80U,-3.34
12,G10C U96G C97U G120C G135U,-5.98
13,G10A A43G A119U,-1.73
14,G10A C13A C22A A46G C49A G122A,-6.21
15,G10A G58C,0.631
16,G10A C11U,-0.673
17,U9G U109A G120C,-4.55
18,G10C A41C C70U,-3.72
19,G10A C11U C40U C97A G120A,-4.4
20,G10U C11G G52U U109C C114U,-5.43
21,G10C G71U,-1.91
22,G10U A105C,-2.95
23,G10A U81A G110A U129A,-5.01
24,G10U A46C C70G C94U U133A G135U,-4.06

row,Variant,polymerase ribozyme fitness (log ratio)
1,G10A U21A A27G C53A,-0.87
2,G10A A16U C88A U92C G120U,-1.32
3,G10A A41C C56U U78G C82U,-1.79
4,G10A C11U C89A,-2.04
5,G10C G128C,-3.1
6,G10A U55A G60C G122A,-0.167
7,G10A G69U C79A A103C C115U G122A,-5.83
8,U9G U21C C70U,-1.31
9,G10C C85A,-0.827
10,G10C G60U,-0.819
11,G10A G57U C72A C79A U96A,-2.33
12,G10A C53U G63U,-0.334
13,G10A G35U C56G C88A G120C U133A,-4.15
14,G10C C11G U21A,0.0374
15,G10C A68G,-4.75
16,G10C C62A U78C,-1.58
17,G10U C11A G36U U78G C115G,-5.09
18,G10A G17U A18U C115U C123G U130A,-4.27
19,G10U A29U C53G,-2.58
20,G10U C12U A43U A118U,-0.927
21,G10C A26G C62G,-4.17
22,G10A G60A C82A C94U C123A,1.22
23,G10U A27C G44C G69U C88G G93A C114A,-6.93
24,G10C G63A C80U,-3.07

row,Variant,polymerase ribozyme fitness (log ratio)
1,G10U A37C C53G A95G,-0.638
2,G10A C11G G51U,-2.64
3,G10C C70U,-1.63
4,G10A C20U C97G C123U,-3.15
5,G10A C56U C94G,-0.664
6,U9G U38C A46C U59C A66U U81A,-5.6
7,G10C A27G A43U G110U,-5.07
8,U9G U109C,-3.57
9,U9G U14C U38G G61U C72U A91U C124U,-3.69
10,G10C C11U A84U A108G,-2.5
11,G10A C72A U87G C102U,-1.09
12,G10A U87A C115G C123G,-1.54
13,G10C G52U G58C A84U,-2.42
14,G10A C11A G42U G48A A91G C115U,-2.2
15,U9G U38G,-0.556
16,G10C A37C,-1.41
17,G10A A50G C64U C115G,-3.37
18,G10U A37C C85A,-1.32
19,G10U A26U G42A U106A U125G,-4.36
20,G10A A18U C70G G77A U87A C115A,-7.14
21,G10A G69U U78C A95G C115U,0.452
22,G10A C11A A18C G42C G44A C101A,-4.26
23,G10A A27C C56A G57A C72U U78G G93C,-4.76
